± gives the standard deviation of the averaged measurements.
Assay: total protein half-life in vivo (active degradation + dilution); higher = more stable protein
[1] = wild type E. coli NCM3722, growth: C-lim chemostat, doubling time 3 h
[2] = wild type E. coli NCM3722, growth: C-lim chemostat, doubling time 6 h
[3] = wild type E. coli NCM3722, growth: C-lim chemostat, doubling time 12 h
[4] = wild type E. coli NCM3722, growth: P-lim chemostat, doubling time 12 h
[5] = E. coli NCM3722 delta-clpP delta-lon delta-hslV, growth: N-lim chemostat, doubling time 6 h
[6] = E. coli NCM3722 delta-clpP, growth: N-lim chemostat, doubling time 6 h
[7] = E. coli NCM3722 delta-hslV, growth: N-lim chemostat, doubling time 6 h
[8] = E. coli NCM3722 delta-lon, growth: N-lim chemostat, doubling time 6 h
[9] = E. coli NCM3722 delta-smpB, growth: N-lim chemostat, doubling time 6 h
[10] = wild type E. coli NCM3722, growth: N-lim chemostat, doubling time 6 h
[11] = wild type E. coli NCM3722, growth: N-lim chemostat, doubling time 12 h
[12] = wild type E. coli NCM3722, growth: P-lim chemostat, doubling time 6 h

Sequence	total protein half-life in vivo [1] [h]	total protein half-life in vivo [2] [h]	total protein half-life in vivo [3] [h]	total protein half-life in vivo [4] [h]	total protein half-life in vivo [5] [h]	total protein half-life in vivo [6] [h]	total protein half-life in vivo [7] [h]	total protein half-life in vivo [8] [h]	total protein half-life in vivo [9] [h]	total protein half-life in vivo [10] [h]	total protein half-life in vivo [11] [h]	total protein half-life in vivo [12] [h]
MKRVLTALAATLPFAANAADAISGAVERQPTNWQAIIMFLIFVVFTLGITYWASKRVRSRSDYYTAGGNITGFQNGLAIAGDYMSAASFLGISALVFTSGYDGLIYSLGFLVGWPIILFLIAERLRNLGRYTFADVASYRLKQGPIRILSACGSLVVVALYLIAQMVGAGKLIELLFGLNYHIAVVLVGVLMMMYVLFGGMLATTWVQIIKAVLLLFGASFMAFMVMKHVGFSFNNLFSEAMAVHPKGVDIMKPGGLVKDPISALSLGLGLMFGTAGLPHILMRFFTVSDAREARKSVFYATGFMGYFYILTFIIGFGAIMLVGANPEYKDAAGHLIGGNNMAAVHLANAVGGNLFLGFISAVAFATILAVVAGLTLAGASAVSHDLYANVFKKGATEREELRVSKITVLILGVIAIILGVLFENQNIAFMVGLAFAIAASCNFPIILLSMYWSKLTTRGAMMGGWLGLITAVVLMILGPTIWVQILGHEKAIFPYEYPALFSITVAFLGIWFFSATDNSAEGARERELFRAQFIRSQTGFGVEQGRAH	> 4	6.1 ± 0.31	12.9 ± 1.4	8.62	–	–	–	–	–	–	–	–
MKRYTPDFPEMMRLCEMNFSQLRRLLPRNDAPGETVSYQVANAQYRLTIVESTRYTTLVTIEQTAPAISYWSLPSMTVRLYHDAMVAEVCSSQQIFRFKARYDYPNKKLHQRDEKHQINQFLADWLRYCLAHGAMAIPVY [P0ADU7]	–	2.76 ± 0.49	–	7.5 ± 0.71	6.32 ± 0.34	5.73 ± 0.49	1.79	2.11 ± 0.32	2.25 ± 0.22	2.03	2.84	3.67 ± 0.23
MKSLQALFGGTFDPVHYGHLKPVETLANLIGLTRVTIIPNNVPPHRPQPEANSVQRKHMLELAIADKPLFTLDERELKRNAPSYTAQTLKEWRQEQGPDVPLAFIIGQDSLLTFPTWYEYETILDNAHLIVCRRPGYPLEMAQPQYQQWLEDHLTHNPEDLHLQPAGKIYLAETPWFNISATIIRERLQNGESCEDLLPEPVLTYINQQGLYR [P0A752]	3.34 ± 0.12	4.95 ± 0.23	11.3 ± 2.1	8.78 ± 2.9	4.39 ± 0.63	–	5 ± 0.32	5.03 ± 0.38	4.2 ± 0.31	4.49	7.22 ± 0.54	5.47
MKSLSYKRIYKSQEYLATLGTIEYRSLFGSYSLTVDDTVFAMVSDGELYLRACEQSAQYCVKHPPVWLTYKKCGRSVTLNYYRVDESLWRNQLKLVRLSKYSLDAALKEKSTRNTRERLKDLPNMSFHLEAILGEVGIKDVRALRILGAKMCWLRLRQQNSLVTEKILFMLEGAIIGIHEAALPVARRQELAEWADSLTPKQEFPAELE	2.28	4.19	9.22	–	5.96	–	–	–	–	–	–	3.79 ± 0.53
MKSMNIAASSELVSRLSSHRRVVALGDTDFTDVAAVVITAADSRSGILALLKRTGFHLPVFLYSEHAVELPAGVTAVINGNEQQWLELESAACQYEENLLPPFYDTLTQYVEMGNSTFACPGHQHGAFFKKHPAGRHFYDFFGENVFRADMCNADVKLGDLLIHEGSAKDAQKFAAKVFHADKTYFVLNGTSAANKVVTNALLTRGDLVLFDRNNHKSNHHGALIQAGATPVYLEASRNPFGFIGGIDAHCFNEEYLRQQIRDVAPEKADLPRPYRLAIIQLGTYDGTVYNARQVIDTVGHLCDYILFDSAWVGYEQFIPMMADSSPLLLELNENDPGIFVTQSVHKQQAGFSQTSQIHKKDNHIRGQARFCPHKRLNNAFMLHASTSPFYPLFAALDVNAKIHEGESGRRLWAECVEIGIEARKAILARCKLFRPFIPPVVDGKLWQDYPTSVLASDRRFFSFEPGAKWHGFEGYAADQYFVDPCKLLLTTPGIDAETGEYSDFGVPATILAHYLRENGIVPEKCDLNSILFLLTPAESHEKLAQLVAMLAQFEQHIEDDSPLVEVLPSVYNKYPVRYRDYTLRQLCQEMHDLYVSFDVKDLQKAMFRQQSFPSVVMNPQDAHSAYIRGDVELVRIRDAEGRIAAEGALPYPPGVLCVVPGEVWGGAVQRYFLALEEGVNLLPGFSPELQGVYSETDADGVKRLYGYVLK	–	5.18 ± 0.13	8.46 ± 1.1	12.3 ± 1.8	4.97 ± 0.45	4.68 ± 0.86	4.28 ± 0.14	4.69 ± 0.36	4.34 ± 0.089	4.44 ± 0.13	8.46 ± 0.59	6.15 ± 0.14
MKSRAAVAFAPGKPLEIVEIDVAPPKKGEVLIKVTHTGVCHTDAFTLSGDDPEGVFPVVLGHEGAGVVVEVGEGVTSVKPGDHVIPLYTAECGECEFCRSGKTNLCVAVRETQGKGLMPDGTTRFSYNGQPLYHYMGCSTFSEYTVVAEVSLAKINPEANHEHVCLLGCGVTTGIGAVHNTAKVQPGDSVAVFGLGAIGLAVVQGARQAKAGRIIAIDTNPKKFDLARRFGATDCINPNDYDKPIKDVLLDINKWGIDHTFECIGNVNVMRAALESAHRGWGQSVIIGVAVAGQEISTRPFQLVTGRVWKGSAFGGVKGRSQLPGMVEDAMKGDIDLEPFVTHTMSLDEINDAFDLMHEGKSIRTVIRY	2.68 ± 0.26	5.87 ± 0.69	10.1 ± 1	11.4 ± 0.52	5.33 ± 0.98	4.73 ± 0.68	4.43 ± 0.28	4.95 ± 0.45	4.24 ± 0.45	4.1 ± 0.47	6.819 ± 0.021	5.6 ± 0.19
MKSSTTIITAYFDIGRGDWTANKGFREKLARSVDVYFSYFERLAALENEMIIFTSPDLKPRVEAIRNGKPTTVIVIDIKKKFRYIRSRIEKIQKDESFTNRLEPRQLKNPEYWSPEYVLVCNLKAYFVNKAINMGLVKTPLVAWIDFGYCHKPNVTRGLKIWDFPFDESKMHLFTIKKGLTVTSQQQVFDFMIGNHVYIIGGAIVGSQHKWKEFYKLVLESQKITLNNNIVDDDQGIFVMCYYKRPDLFNLNYLGRGKWFDLFRCFRSNTLGAKMQALRIFLSRK	2.82 ± 0.13	5.548 ± 0.042	10.7 ± 0.57	11.4 ± 0.17	6.61 ± 0.098	6.18 ± 0.28	5.99 ± 0.11	6.49 ± 0.38	5.52 ± 0.26	5.82 ± 0.57	11.6 ± 0.62	5.85 ± 0.86
